The text below walks through data of article PMC3458539 (Nucleic Acids Research, 2012).

Substitutions are numbered along the chain they refer to.

As a reminder, the stoichiometry N is the number of molecules, sites or subunits per partner or assembly.

The data set “native MS” deals with the molecule itself. Put plainly: native MS.
The data set “SEC” concerns the molecule itself. Description: SEC. (In general: Size exclusion chromatography separates by hydrodynamic size, large species first.)

B1: Vibrio cholerae Hfq (wild-type) (natural protein)
chain: MAKGQSLQDPFLNALRRERIPVSIYLVNGIKLQGQIESFDQFVILLKNTVNQMVYKHAISTVVPARPVSHHSGDRPASDRPAEKSEE
Regarding B1, in “native MS”, the “stoichiometry N” value was found to be 6.

B2: VcHfqK56A (proximal face RNA-binding mutant of Vibrio cholerae Hfq) (natural protein)
chain: B1 chain with K56A
Turning to B2, the “stoichiometry N” value in “SEC” is 6.

B3: VcHfqY25D (distal face RNA-binding mutant of Vibrio cholerae Hfq) (natural protein)
chain: B1 chain with Y25D
Take B3: the “stoichiometry N” value in the data set “SEC” was 6.
